From paper PMC11246219 come the findings set out here.

In this test the target is PELI2 (UniProt Q9HAT8). The test is described as follows: anti-FLAG co-IP, phospho-STING blot quantified.

With STING (from UniProt Q86WV6) STING-5T>A, the “binding against the reference” value runs as follows: (reference: STING only-T354, sites T354) “lost”; (reference: STING only-T356, sites T356) “lost”.
